Source: patent publication US7927849B2, “Laccase enzyme and use thereof” (AB Enzymes OY, priority 2004, dated 2011)
Several values for one entry are separate records, joined by “and”; a condition that tells them apart may be missing. Identical values can stand only once.

B1: wt TaLcc1: Wild type laccase purified from Thielavia arenaria ALKO4197 culture supernatant (protein)
chain: MKSWAAAVALMVGILSPHAAAAPPANPVQRDMLQVLEARQSGPTCNTPSNRACWTNGFDINTDYEVSTPNTGRTVAYQLTLTEKENWIGPDGVLKNVVMLVNDKIIGPTIRANWGDNIEVTVINNLKTNGTSMHWHGLRQLGNVFNDGANGVTECPIPPKGGRKTYKFRATQYGTSWYHSHFSAQYGNGVVGTIQIDGPASLPYDIDLGVFPLMDYYYRSADELVHFTQSNGAPPSDNVLFNGTARHPETGAGQWYNVTLTPGKRHRLRIINTSTDNHFQVSLVGHNMTVIATDMVPVNAFTVSSLFLAVGQRYDVTIDANSPVGNYWFNVTFGDGLCGSSNNKFPAAIFRYQGAPATLPTDQGLPVPNHMCLDNLNLTPVVTRSAPVNNFVKRPSNTLGVTLDIGGTPLFVWKVNGSAINVDWGKPILDYVMSGNTSYPVSDNIVQVDAVDQWTYWLIENDPTNPIVSLPHPMHLHGHDFLVLGRSPDELPSAGVRHIFDPAKDLPRLKGNNPVRRDVTMLPAGGWLLLAFKTDNPGAWLFHCHIAWHVSGGLSVDFLERPNDLRTQLNSNAKRADRDDFNRVCREWNAYWPTNPFPKIDSGLRHRFVEESEWMVR
modifications: Thielavia arenaria ALKO4197; (1)..(617) Deduced amino acid sequence of Thielavia arenaria ALKO4197 laccase 1 (Ta Lcc1)
notes: Wild type laccase purified from Thielavia arenaria ALKO4197 culture supernatant

Columns and labels:
[1] = tested on: recombinant Thielavia arenaria TaLcc1 laccase (rTaLcc1); format: biochemical
Protocol: The inhibition effect of different compounds on the activity of the recombinant TaLcc1 laccase was determined as described in Example 2.

[2] = target: T1, Thielavia arenaria ALKO4197 laccase TaLcc1, wild type (wt TaLcc1), SEQ ID NO: 12 (Canariomyces arenarius, UniProt F6N9E7); assay: biochemical; settings: pH 4.5, read-out: Inhibition (%) of laccase
T1 construct: predicted mature residues 22-604

[3] = tested on: Thielavia wild type laccase (wt TaLcc1); settings: pH 4.5
[4] = Specific activity on ABTS; format: biochemical; settings: 25 mM succinate buffer pH 4.5, 25° C.
Protocol: The activity assay was carried out in accordance with the method developed by Niku-Paavola et al. (1988). The sample was diluted with 0.025 M succinate buffer, pH 4.5. […] The activity is expressed as nano katals.
(§1) Specific activities of the purified Thielavia laccase were determined towards different laccase substrates.

Specific activity on DMP = format: biochemical; settings: 25 mM MES buffer, pH 5.5
Protocol: as §1

[5] = Specific activity on syringaldazine; format: biochemical; settings: 25 mM MES buffer, pH 5.5
Protocol: as §1

[6] = Specific activity on guaiacol; format: biochemical; settings: 25 mM MES buffer, pH 5.5
Protocol: as §1

[7] = Isoelectric focusing (pI); format: physicochemical; settings: pH range 3-9, ABTS staining
Protocol: Molecular weight of the Thielavia arenaria laccase (wt TaLcc1) was determined on SDS-PAGE according to Laemmli (1970). The gels used in the SDS-PAGE analysis were ready-made 12% Tris HCl gels (BioRad). Protein bands were visualized by staining with Coomassie Brilliant Blue (R 350; Pharmacia) and compared with molecular weight markers (Prestained Protein Marker Broad Range #7708S; New England BioLabs, Beverly, Mass.). The molecular weight of the Thielavia areanaria laccase was approximately 80 kDa. The isoelectric point of the laccase was determined with isoelectric focusing within the pH range of 3-9 (Pharmalyte IEF, Pharmacia) on a LKB 2117 Multiphor II Electrophoresis System (LKB Pharmacia, Bromma, Sweden) according to the manufacturer's instructions.
The purified recombinant Thielavia arenaria TaLcc1 was characterized in terms of pH optimum, thermal stability, and pI as described in Example 2. The molecular weight was determined by MALDI-TOF mass spectrometry on a Ultraflex™ time-of-flight instrument (BrukerDaltonics, Germany) as previously described (Palonen et al., 2003). The redox potential of TaLcc1 was also determined with a combined Pt-AgCl/KCl microelectrode at pH 5.0 according to Sigoillot et al (2004)

Molecule | Inhibition (%) of laccase rTaLcc1 [1] | inhibition at 10000 µM [2] | Inhibition(%) wt TaLcc1 [3] | Specific activity on ABTS [4] | Specific activity on DMP (Specific activity on DMP) | Specific activity on syringaldazine [5] | Specific activity on guaiacol [6] | pI [7]
O=C(O)CN(CCN(CC(=O)O)CC(=O)O)CC(=O)O [EDTA] | 5% | 0% | 0% |  |  |  |  | 
[Cl-].[Na+] [NaCl] |  |  | 42% and 35% |  |  |  |  | 
B1 |  |  |  | 1020 nkat/mg | 260 nkat/mg | 490 nkat/mg | 63 nkat/mg | 5.5-6.9
